From US12514920B1, “Respiratory syncytial virus mRNA vaccine, and preparation method therefor and use thereof” (Hangzhou Tianlong Pharmaceutical Co., Ltd., priority 2024, dated 2026)

How the values were obtained:
[1] = system: RSV pre-F antibody (3C12); assay: Binding of epitope Φ of RSV F antigen mutants by flow cytometry; details: for RSV pre-F antibody (3C12) Epitope Φ (%): binding rate, 293T cells 16 h after mRNA-LNP transfection; for Φ/II (%): ratio of epitope Φ (3C12) to epitope II (11A9) binding rate
Source text: (§1) To investigate whether the RSV F antigen mutants have pre-fusion epitopes, an RSV pre-F antibody (3C12) (specifically binding to the RSV pre-F epitope […]) and an RSV F antibody (11A9) (binding to pre-F and post-F epitopes II) were detected by flow cytometry in this example, and RSV F protein mutants in the pre-F conformation were expected to bind to the antibodies tested.
(§2) • 293T cells (purchased from ATCC cell bank); RSV pre-F antibody (3C12), epitope […] (Novoprotein, Cat. No.: DA101); RSV F antibody (11A9), epitope II (Novoprotein, Cat. No.: DA091); • experimental groups: mRNA vaccines corresponding to the expressed antigens in Example 3;
(§3) • (1) Cell transfection: 293T cells were seeded at 1.3×10^5 cells/well in a 24-well plate. The next day, mRNA-LNP samples (containing 300 ng of mRNA) were added directly to the cells, and the mixture was uniformly mixed. • (2) Cell collection: The cells were taken out of the incubator after 16 h of transfection, the medium was pipetted off, 500 μL of 0.1% BSA solution was pipetted to wash the medium remaining in the well plate, taking care not to resuspend the cells, and the 0.1% BSA solution was pipetted off. 500 μL of 0.1% BSA solution was added to each well, and the cells were pipetted and transferred to a 1.5 mL centrifuge tube. • (3) Centrifugation: The cells were harvested by centrifugation at 400 g for 5 min at 4° C. in the dark, and the supernatant was discarded. • (4) Straining: 50.6 μL of RSV fluorescent antibody diluent was added to each of the control sample and the test samples to resuspend the cells, and the samples were incubated at 4° C. for 2 h in the dark. • (5) Cleaning: After the incubation was completed, 500 μL of 0.1% BSA solution was added to each tube, the cells were harvested by centrifugation at 400 g for 5 min at 4° C. in the dark, and the supernatant was discarded. This operation was repeated three times. • (6) Resuspension of cells: 200 μL of 0.1% BSA solution was added to each sample, and the cells were carefully pipetted to prepare a cell suspension. • (7) Detection on flow cytometer: The […] of RSV F mutants to antibodies were measured using flow cytometry, with 1×10^4 cells detected in each measurement.
(§4) The RSV pre-F antibody (3C12) used in this example specifically binds to the RSV pre-F epitope Φ, and the RSV F antibody (11A9) binds to the pre-F and post-F epitopes II. Whether the pre-fusion conformations of the RSV F mutants are stable can be further determined by detecting the binding of the epitope Φ and the epitope II on the mutants to corresponding epitopes of antibodies 3C12 and 11A9, respectively, by flow cytometry.

RSV F antibody (11A9) = assay: Binding of epitope II of RSV F antigen mutants by flow cytometry; details: for RSV F antibody (11A9) Epitope II (%): binding rate, 293T cells 16 h after mRNA-LNP transfection
Source text: as §1, §2, §3, §4

[2] = system: RSV pre-F antibody (3C12); format: physicochemical; details: ELISA binding to 3C12; for Stress resistance parameter, Osmotic pressure (mM) 3000: high osmotic pressure 3000 mM; for Stress resistance parameter, Osmotic pressure (mM) 3000 / Stress resistance parameter, Osmotic pressure (mM) 10: room temperature; for Stress resistance parameter, Osmotic pressure (mM) 3000 / Stress resistance parameter, Osmotic pressure (mM) 10 / Stress resistance parameter, pH 3.5 / Stress resistance parameter, pH 10: 60 min; for Stress resistance parameter, Temperature (° C.) 50: incubation at 50° C. for 60 min; for Stress resistance parameter, Osmotic pressure (mM) 10: low osmotic pressure 10 mM; for Stress resistance parameter, pH 3.5: pH 3.5, room temperature; for Stress resistance parameter, pH 10: pH 10, room temperature; for Stress resistance parameter, Temperature (° C.) 4: storage at 4° C. for one week
Source text: To investigate the stability of the RSV F antigen mutants under different pH, temperature, osmotic pressure and other conditions, the mutants were subjected to stress tests under different treatment conditions in this example.
• 293T cells (purchased from ATCC cell bank); • Primary antibody: RSV pre-F antibody (3C12), epitope Φ (purchased from Suzhou Novoprotein Scientific Co., Ltd. (hereinafter referred to as Novoprotein), Cat. No.: DA101); • Standard: RSV pre-F trimer protein (Novoprotein, Cat. No.: DRA230); • Secondary antibody: peroxidase AffiniPure goat anti-human IgG (H+L) (purchased from Yeasen Biotechnology (Shanghai) Co., Ltd. (hereinafter referred to as Yeasen), Cat. No.: N/A); • Experimental group: mRNA vaccines after screening in Example 4;
Coating: A 96-well microplate was coated with a working solution and incubated at 2 to 8° C. for 16 to 20 h.
Plate washing: Phosphate buffered saline PBST was added to each well, and the plate was washed 5 times using a plate washer and patted dry on absorbent paper.
Blocking: After a blocking solution was added, the […] were placed on a constant temperature microplate shaker and incubated at 400 rpm for 1.5 h at 37° C.
Plate washing: PBST was added to each well, and the plate was washed 5 times using a plate washer and patted dry on absorbent paper.
Primary antibody incubation: A primary antibody dilution was added to each well, and the plate was sealed with a sealing film, and then incubated at 400 rpm for 1.5 h at 37° C.
Secondary antibody incubation: A secondary antibody dilution was added to each well, and the plate was sealed with a sealing film, and then incubated at 400 rpm for 45 min at 37° C.
Color development: A chromogenic solution was added, and the plate was sealed with a sealing film, and then placed on a constant temperature microplate shaker and incubated at 400 rpm for 25 min at 37° C.
Reaction stopping: After the color development was completed, a stop buffer was added at […] to the microplate to stop the reaction.
Plate reading: Absorbance values (OD values) were read within 5 min using a multimode microplate reader, with dual wavelengths of 450 nm and 630 nm set.
In this example, stability screening of the mutants through different treatment conditions was defined as a stress test, including storage at 4° C. for one week; incubation at 50° C. for 60 min; treatment at room temperature under low osmotic pressure and high osmotic pressure conditions for 60 min; treatment at room temperature under acid and base conditions for 60 min. The binding of the mutants to the RSV pre-F antibody (3C12) recognizing the epitope Φ was detected by ELISA.

| Molecule | RSV pre-F antibody (3C12) Epitope Φ (%) ([1]; flow cytometry) | RSV pre-F antibody (3C12) Epitope Φ (%) binding rate ([1]; flow cytometry, epitope Φ, antibody 3C12) [%] | Φ/II (%) [1] [%] | RSV F antibody (11A9) Epitope II (%) (RSV F antibody (11A9)) | RSV F antibody (11A9) Epitope II (%) binding rate (RSV F antibody (11A9); epitope II, antibody 11A9) [%] | Stress resistance parameter, Osmotic pressure (mM) 3000 [2] | Stress resistance parameter, Temperature (° C.) 50 [2] | Stress resistance parameter, Osmotic pressure (mM) 10 [2] | Stress resistance parameter, pH 3.5 [2] | Stress resistance parameter, pH 10 [2] | Stress resistance parameter, Temperature (° C.) 4 [2] |
| --- | --- | --- | --- | --- | --- | --- | --- | --- | --- | --- | --- |
| RSVA2 (138251)-wt: wild sequence of RSV A2 F protein, full length (1 to 574 aa) [reference compound] | 1.0 | 1.0 | 4.3 | 23.1 | 23.1 | – | – | – | – | – | – |
| YK-RSV-005 (protein) QNITEEFYQSTCSAVSKGYLGALRTGWYTSVITIELSNIKENKCNGTDAKVKLIKQELDKYKNAVTDLQLLMQSTPATGSGSAICSGVAVCKVLHLEGEVNKIKSALLSTNKAVVSLSNGVSVLTIKVLDLKNYIDKQLLPIVNKQSCSISPIETVIEFQQKNNRLLEITREFSVNAGVTTPVSTYMLTNSELLSLINDMPITNDQKKLMSNNVQIVRQQSYSIMCIIKEEVLAYVVQLPLYGVIDTPCWKLHTSPLCTTNTKEGSNICLTRTDRGWYCDNAGSVSFFPQAETCKVQSNRVFCDTMNSRTLPSEVNLCNVDIFNPKYDCKIMTSKTDVSSSVITSLGAIVSCYGKTKCTASNKNRGIIKTFSNGCDYVSNKGVDTVSVGNTLYCVNKQEGQSLYVKGEPIINFYDPLVFPSSEFDASISQVNEKINQSLAFIRKSDELLHNVNAGKSTTNIMITTIIIVIIVILLSLIAVGLLLY | – | – | 96.2 | – | – | 0.47 ± 0.08 | 0.44 ± 0.06 | 0.57 ± 0.00 | 0.64 ± 0.20 | 0.88 ± 0.14 | 0.55 ± 0.09 |
| YK-RSV-014 (protein) QNITEEFYCSTCSAVSKGYLGALRTGWYTSVITIELSNIKENKCNGTDAKVKLIKQELDKYKNAVTDLQLLMQSTPATGSGSAICSGVAVSKVLHLEGEVNKIKSALLSTNKAVVSLSNGVSVLTIKVLDLKNYIDKQLLPIVNKQSCSIPNIETVIEFQQKNNRLLEITREFSVNAGVTTPVSTYMLTNSELLSLINDMPITNDQKKLMSNNVQIVRQQSYSIMSIIKEEVLAYVVQLPLYGVIDTPCWKLHTSPLCTTNTKEGSNICLTRTDRGWYCDNAGSVSFFPQAETCKVQSNRVFCDTMNSRTLPSEVNLCNVDIFNPKYDCKIMTSKTDVSSSVITSLGAIVSCYGKTKCTASNKNRGIIKTFSNGCDYVSNKGVDTVSVGNTLYCVNKQEGQSLYVKCEPIINFYDPLVFPSSEFDASISQVNEKINQSLAFIRKSDELLHNVNAGKSTTNIMITTIIIVIIVILLSLIAVGLLLY | 0.0 | – | 0.0 | 0.1 | – | – | – | – | – | – | – |
| YK-RSV-017 (protein) QNITEEFYQSTCSAVSKGYLGALRTGWYTCVILIELSNIKENKCNGTDAKVKLIKQELDKYKNAVTDLQLLMQSTPATGSGSAICSGVAVSKVLHLEGEVNKIKSALLSTNKAVVSLSNGVSVCTFKVLDLKNYIDKQLLPIVNKQSCSIPNIETVIEFQQKNNRLLEITREFSVNAGVTTPVSTYMLTNSELLSLINDMPITNDQKKLMSNNVQIVRQQSYSIMSIIKEEVLAYVVQLPLYGVIDTPCWKLHTSPLCTTNTKEGSNICLTRTDRGWYCDNAGSVSFFPQAETCKVQSNRVFCDTMNSRTLPSEVNLCNVDIFNPKYDCKIMTSKTDVSSSVITSLGAIVSCYGKTKCTASNKNRGIIKTFSNGCDYVSNKGVDTVSVGNTLYCVNKQEGQSLYVKGEPIINFYDPLVFPSSEFDASISQVNEKINQSLAFIRKSDELLHNVNAGKSTTNIMITTIIIVIIVILLSLIAVGLLLY | – | – | 96.5 | – | – | 0.46 ± 0.06 | 0.60 ± 0.04 | 0.59 ± 0.03 | 0.76 ± 0.11 | 0.93 ± 0.06 | 0.35 ± 0.07 |
| YK-RSV-038 (protein) QNITEEFYQSTCSAVSKGYLGALRTGWYTCVITIELSNIKENKCNGTDAKVKLIKQELDKYKNAVTDLQLLMQSTPATGSGSAIASGVAVSKVLHLEGEVNKIKSALLSTNKAVVSLSNGVCVLTFKVLDLKNYIDKQLLPILNKQSCSIPNIETVIEFQQKNNRLLEITREFSVNAGVTTPVSTYMLTNSELLSLINDMPITNDQKKLMSNNVQIVRQQSYSIMSIIKEEVLAYVVQLPLYGVIDTPCWKLHTSPLCTTNTKEGSNICLTRTDRGWYCDNAGSVSFFPQAETCKVQSNRVFCDTMNSRTLPSEVNLCNVDIFNPKYDCKIMTSKTDVSSSVITSLGAIVSCYGKTKCTASNKNRGIIKTFSNGCDYVSNKGVDTVSVGNTLYYVNKQEGQSLYVKGEPIINFYDPLVFPSDEFDASISQVNEKINQSLAFIRKSDELLHNVNAGKSTTNIMITTIIIVIIVILLSLIAVGLLLY | – | – | 94.8 | – | – | 0.55 ± 0.13 | 0.70 ± 0.10 | 0.74 ± 0.08 | 0.88 ± 0.17 | 0.82 ± 0.26 | 0.32 ± 0.08 |
| YK-RSV-056 (protein) QNITEEFYQSTCSAVSKGYLGALRTGWYTSVITIELSNIKENKCNGTDAKVKLIKQELDKYKNAVTDLQLLMQSTPATGSGSCIASGVAVSKVLHLEGEVNKIKSALLSTNKAVVSLSNGVSVLTFKVLDLKNYIDKQLLPILNKQSCSIPNIETVIEFQQKNNRLLEITREFSVNAGVTTPVSTYMLTNSELLSLINDMPITNDQKKLMSNNVQIVRQQSYCIMSIIKEEVLAYVVQLPLYGVIDTPCWKLHTSPLCTTNTKEGSNICLTRTDRGWYCDNAGSVSFFPQAETCKVQSNRVFCDTMNSRTLPSEVNLCNVDIFNPKYDCKIMTSKTDVSSSVITSLGAIVSCYGKTKCTASNKNRGIIKTFSNGCDYVSNKGVDTVSVGNTLYYVNKQEGQSLYVKGEPIINFYDPLVFPSDEFDASISQVNEKINQSLAFIRKSDELLHNVNAGKSTTNIMITTIIIVIIVILLSLIAVGLLLY | – | – | 97.4 | – | – | 0.44 ± 0.08 | 0.91 ± 0.09 | 0.82 ± 0.07 | 0.64 ± 0.12 | 0.72 ± 0.14 | 0.69 ± 0.10 |
